Laboratory results published in the supplement of paper PMC10724198.
± gives the standard deviation of the averaged measurements.

Tested on: Saccharomyces cerevisiae
Test: protein stability index of tFT-peptide fusion (C-terminal peptide) (PSI (0-1 scale)); higher = more stable (slower turnover)
Conditions: genetic background: wild type; temperature: 30 C
Experimental: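 Multiplexed protein stability (MPS) profiling in S. cerevisiae. Random 12-aa peptides (tFT-X12 library) are fused to the C-terminus of a sfGFP-mCherry tandem fluorescent timer, after mCherry and a GGGS linker. Cells are FACS-sorted into 8 mCherry/sfGFP bins and deep-sequenced. The protein stability index (PSI) is the read-weighted bin average, scaled from 0 (unstable) to 1 (stable). Only peptides with >10 reads are reported; cells were grown at 30 °C in SC-His with glucose.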
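Note: PSI is a weighted mean of sequencing reads over stability bins, variants kept only with over 10 reads, mCherry proximal and sfGFP distal, peptide attached via GGGS linker.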

Sequence | protein stability index
EVYPAEADVFGG | 0.69 ± 0.052
EWEKPEDLHKPA | 0.659 ± 0.058
EWGGGGGGGKCV | 0.733 ± 0.054
EWQWGWGGVRRD | 0.765 ± 0.032
EWTTTVLGGQLR | 0.696 ± 0.027
EWVPDIANLRRR | 0.752 ± 0.16
EYFKTKQKKKKE | 0.753 ± 0.12
EYGECWCWSSWR | 0.732 ± 0.059
FACAGPAAFHSL | 0.597 ± 0.014
FADTALLCELLR | 0.687 ± 0.033
FAKELSLRSFSA | 0.814 ± 0.04
FALCLPPPSPPA | 0.761 ± 0.026
FALFQSFCFFCF | 0.564 ± 0.061
FALTHSRSPSTS | 0.799 ± 0.1
FASSSDSLWRGI | 0.679 ± 0.014
FATPDGFVSLWF | 0.774 ± 0.14
FAVLSFRFPGGL | 0.693 ± 0.099
FAVSTVCWCCGL | 0.647 ± 0.041
FCGGYHATVKMR | 0.68 ± 0.015
FCNAVLSCFSIF | 0.597 ± 0.0068
FCVVVAIVPLWG | 0.512 ± 0.013
FCWVVFHSGISS | 0.713 ± 0.085
FCYWCLGWGVGL | 0.692 ± 0.059
FELYGVGLGTCA | 0.633 ± 0.17
FEVAPAPLDQVV | 0.653 ± 0.028

Sequence | protein stability index
FFCTHFQLLFSP | 0.641 ± 0.019
FFDKLEIRALVV | 0.6302 ± 0.00098
FFERRLGYYSRM | 0.85 ± 0.09
FFFLCLPSSFAF | 0.614 ± 0.0098
FFGFLLFCSRFS | 0.516 ± 0.016
FFMEKPSSGCTS | 0.685 ± 0.017
FFPLSSLIAFLP | 0.6815 ± 0.0025
FFPPLPATSVPA | 0.561 ± 0.1
FFSFILGGFLLG | 0.6682 ± 0.00082
FFSSHPCYFSTF | 0.69 ± 0.072
FFSVLSAISFFF | 0.628 ± 0.06
FFVGGVTDLFVS | 0.724 ± 0.0092
FFWTTPRFPFPS | 0.725 ± 0.021
FFYFSLSLSHFC | 0.496 ± 0.025
FGAATLFLLAPC | 0.55 ± 0.02
FGASYLGSLLDV | 0.699 ± 0.057
FGCGLYPLRVLH | 0.604 ± 0.034
FGCISAGLGWMY | 0.721 ± 0.048
FGCLGVLGAGRC | 0.713 ± 0.034
FGGGGGGVGLAV | 0.65 ± 0.033
FGGGSHRRGRCR | 0.68 ± 0.018
FGGSTPVLKPTQ | 0.719 ± 0.019
FGLWGFGRPRGW | 0.721 ± 0.031
FGQERLHMSILF | 0.692 ± 0.029
FGSLRLQITVNP | 0.557 ± 0.098

Sequence | protein stability index
FGTSLLPLPPPD | 0.601 ± 0.025
FGVQTFIGPTIV | 0.677 ± 0.012
FGVSIGELAGRH | 0.686 ± 0.035
FGVTGLGVGLVW | 0.639 ± 0.0066
FHFLCLVGSFRG | 0.528 ± 0.037
FIGFGCGLVWSV | 0.613 ± 0.019
FILERSLLSLQG | 0.678 ± 0.18
FILLFGCFGFFC | 0.557 ± 0.051
FIRDKQTSFDIR | 0.68036 ± 0.00024
FKLVGRHLHSFD | 0.652 ± 0.06
FKRLSTDCSVNS | 0.687 ± 0.061
FKSVPTLPHPSP | 0.6701 ± 0.0045
FLASFSSFMFYL | 0.591 ± 0.016
FLDPFLTRRCVF | 0.694 ± 0.055
FLFADVSSPSSI | 0.725 ± 0.038
FLGGWVCGWPQF | 0.772 ± 0.15
FLISSGPSVSVL | 0.623 ± 0.026
FLLLSPARLVLL | 0.5529 ± 0.0021
FLLYSSSAIPEH | 0.759 ± 0.065
FLRISPPPPSPP | 0.676 ± 0.077
FLRLFLQQVEFL | 0.7157 ± 0.0026
FLSFIADVTGKR | 0.707 ± 0.019
FLSFLFTGFIQL | 0.595 ± 0.017
FLSGPCLLSFAS | 0.679 ± 0.12
FLVFRFPFGFSC | 0.566 ± 0.025

Sequence | protein stability index
FLVNVIRSCKGE | 0.685 ± 0.059
FLWSSLYYARLD | 0.75 ± 0.032
FLYDPVMLGLAC | 0.469 ± 0.053
FMLGYIRPKWGG | 0.714 ± 0.12
FMRASPSACTCL | 0.668 ± 0.094
FMSMSYDEWAYL | 0.721 ± 0.064
FMYRDVPFLRAP | 0.697 ± 0.03
FNHYPSPPQRFY | 0.685 ± 0.072
FNIIHKKNTKEI | 0.778 ± 0.03
FNPRIGGDCRSA | 0.678 ± 0.031
FNRTRRLPLDSL | 0.7018 ± 0.0053
FPAYPLPPPAPN | 0.697 ± 0.067
FPFDMTSTEMSL | 0.639 ± 0.096
FPFGICMISCDG | 0.628 ± 0.02
FPGSLVPVASVP | 0.71 ± 0.089
FPHPSPPPFPPP | 0.698 ± 0.026
FPLPPPPPAVFL | 0.673 ± 0.086
FPLPPPPSLSTP | 0.656 ± 0.036
FPLPSPPRPFSF | 0.761 ± 0.041
FPPCSPPPPAPL | 0.625 ± 0.05
FPPLLFPPTPTR | 0.842 ± 0.027
FPPLTRPSPIYP | 0.726 ± 0.03
FPPPCVLPLPRT | 0.723 ± 0.02
FPPPPPHTPSSA | 0.694 ± 0.057
FPPTALESMPSS | 0.737 ± 0.042

Sequence | protein stability index
FPRLPSRPLSSL | 0.6898 ± 0.0033
FPSFSLIFFSLI | 0.489 ± 0.074
FPSLLFSSPSAF | 0.7 ± 0.038
FPSPLLPYPLLP | 0.747 ± 0.052
FPVGVRLNQNET | 0.718 ± 0.017
FPVSPFPPPPSS | 0.742 ± 0.16
FQAYPPFSLVPA | 0.5533 ± 0.0029
FQEDSPVSQRYP | 0.645 ± 0.041
FQGALFTEVVES | 0.716 ± 0.043
FQNFTLSQEQSE | 0.717 ± 0.014
FRCPGFYVVIFP | 0.582 ± 0.0092
FRDLRSSVLVLP | 0.6599 ± 0.0058
FRFVFFFRSGLV | 0.595 ± 0.063
FRIVLIRASDPS | 0.625 ± 0.032
FRLLLFPLPLSP | 0.494 ± 0.011
FRLPTCLLLFPF | 0.594 ± 0.098
FRPPVPPPPVLP | 0.683 ± 0.012
FRSFLDHPRSPC | 0.729 ± 0.029
FRVFLGHLITRK | 0.727 ± 0.039
FRVKVFGLPFWL | 0.509 ± 0.028
FSAFFLFMFCFL | 0.488 ± 0.025
FSCKGSYIFTRR | 0.651 ± 0.012
FSCLRSINRDVG | 0.702 ± 0.044
FSETDSWCQARS | 0.717 ± 0.013
FSGGPSTPPTWS | 0.817 ± 0.01

Sequence | protein stability index
FSHPQPLLPFPV | 0.662 ± 0.0094
FSISCFRVSSDF | 0.761 ± 0.032
FSKVLCSIVRGR | 0.655 ± 0.015
FSLFSLPFPFPL | 0.7752 ± 0.0015
FSLLTFPPSSPT | 0.716 ± 0.016
FSLPLSPRGDCP | 0.6991 ± 0.0014
FSMHFARFFSCS | 0.687 ± 0.061
FSPPTLSLPGPI | 0.721 ± 0.0083
FSPRHSPFSVAR | 0.803 ± 0.05
FSSGLAEVGVAR | 0.676 ± 0.074
FSSLHLTHELLS | 0.664 ± 0.061
FSTIWDRLLLTG | 0.668 ± 0.083
FSVGSPLSSPGI | 0.713 ± 0.04
FSVHVPPFPPVP | 0.654 ± 0.038
FSYPPSLVPFCS | 0.702 ± 0.019
FTACSVCVETMN | 0.678 ± 0.17
FTGYPKHTRLPY | 0.687 ± 0.017
FTKAVQVFLASV | 0.635 ± 0.057
FTNDMSSGRVAI | 0.692 ± 0.016
FTPPPPPPPPVL | 0.6691 ± 0.0051
FVAGFAGGAVGV | 0.72 ± 0.0078
